The values that follow come from patent US20210115133A1 (NGM BIOPHARMACEUTICALS, published 2021).

Usually Kd stands for the equilibrium constant for the complex coming apart.

Assay [1] has as its target T1, cynomolgus monkey beta klotho protein (cynomolgus monkey (Macaca fascicularis), UniProt Q86Z14 53-996 (human entry), limits assumed).
T1 construct: Soluble protein injected in Biacore assays; also called Cyno KLB; cyno beta klotho
T1 chain: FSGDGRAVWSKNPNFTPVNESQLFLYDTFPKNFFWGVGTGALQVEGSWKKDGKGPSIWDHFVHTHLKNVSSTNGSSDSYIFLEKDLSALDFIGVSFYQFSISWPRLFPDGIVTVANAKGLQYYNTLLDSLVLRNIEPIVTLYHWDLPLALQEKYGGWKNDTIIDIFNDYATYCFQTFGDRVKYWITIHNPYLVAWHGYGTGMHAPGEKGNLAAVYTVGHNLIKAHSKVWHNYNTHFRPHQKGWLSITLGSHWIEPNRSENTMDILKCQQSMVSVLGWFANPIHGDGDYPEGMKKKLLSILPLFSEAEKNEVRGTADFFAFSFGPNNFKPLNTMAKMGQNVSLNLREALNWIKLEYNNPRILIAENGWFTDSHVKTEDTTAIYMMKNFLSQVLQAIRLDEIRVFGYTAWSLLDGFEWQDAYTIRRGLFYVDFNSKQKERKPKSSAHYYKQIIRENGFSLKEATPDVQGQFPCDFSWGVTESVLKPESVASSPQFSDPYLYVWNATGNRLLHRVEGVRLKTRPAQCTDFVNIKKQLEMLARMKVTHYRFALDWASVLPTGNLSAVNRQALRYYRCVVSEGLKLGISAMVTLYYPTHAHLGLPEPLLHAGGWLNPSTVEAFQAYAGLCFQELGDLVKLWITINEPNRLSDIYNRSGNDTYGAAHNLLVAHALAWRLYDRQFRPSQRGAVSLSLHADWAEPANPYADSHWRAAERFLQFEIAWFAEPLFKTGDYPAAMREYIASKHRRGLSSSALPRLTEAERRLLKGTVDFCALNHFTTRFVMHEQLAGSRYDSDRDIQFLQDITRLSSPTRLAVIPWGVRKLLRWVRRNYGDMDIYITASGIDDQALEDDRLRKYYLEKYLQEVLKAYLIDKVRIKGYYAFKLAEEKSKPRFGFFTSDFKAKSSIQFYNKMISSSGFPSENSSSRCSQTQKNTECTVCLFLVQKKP
As to the kind of experiment: Biacore SPR; antibody captured on anti-mouse Fc CM5 chip, beta klotho 1.56-25 nM injected, 25 C. The procedure:
Binding affinity measurements were also made in additional Biacore based assays. For example, equilibrium dissociation constant (KD) measurements were carried out with purified antibodies to evaluate their binding to human beta klotho and cyno beta klotho. As mentioned above, anti-mouse Fc antibody (Sigma-Aldrich, St. Louis, Mo.) was immobilized on all four flow cells of a CM5 chip using amine coupling reagents (GE Healthcare LifeSciences, Piscataway, N.J.). Purified antibodies were captured (˜100 RUs) on flow cells 2, 3 and 4 using flow cell 1 as a reference. This was followed by injection of different concentrations of human or cyno beta klotho (1.56 nM to 25 nM, two-fold dilutions in PBS-P buffer) at a flow rate of 70 μL/min and the binding kinetics were evaluated at 25° C.
In general terms: In SPR one partner is held on a chip, and binding of the other changes the refractive index at the surface.

The target of assay [2] is T2, cynomolgus monkey beta klotho expressed on cells (cynomolgus monkey (Macaca fascicularis), UniProt Q86Z14 1-1044 (human entry)).
T2 chain: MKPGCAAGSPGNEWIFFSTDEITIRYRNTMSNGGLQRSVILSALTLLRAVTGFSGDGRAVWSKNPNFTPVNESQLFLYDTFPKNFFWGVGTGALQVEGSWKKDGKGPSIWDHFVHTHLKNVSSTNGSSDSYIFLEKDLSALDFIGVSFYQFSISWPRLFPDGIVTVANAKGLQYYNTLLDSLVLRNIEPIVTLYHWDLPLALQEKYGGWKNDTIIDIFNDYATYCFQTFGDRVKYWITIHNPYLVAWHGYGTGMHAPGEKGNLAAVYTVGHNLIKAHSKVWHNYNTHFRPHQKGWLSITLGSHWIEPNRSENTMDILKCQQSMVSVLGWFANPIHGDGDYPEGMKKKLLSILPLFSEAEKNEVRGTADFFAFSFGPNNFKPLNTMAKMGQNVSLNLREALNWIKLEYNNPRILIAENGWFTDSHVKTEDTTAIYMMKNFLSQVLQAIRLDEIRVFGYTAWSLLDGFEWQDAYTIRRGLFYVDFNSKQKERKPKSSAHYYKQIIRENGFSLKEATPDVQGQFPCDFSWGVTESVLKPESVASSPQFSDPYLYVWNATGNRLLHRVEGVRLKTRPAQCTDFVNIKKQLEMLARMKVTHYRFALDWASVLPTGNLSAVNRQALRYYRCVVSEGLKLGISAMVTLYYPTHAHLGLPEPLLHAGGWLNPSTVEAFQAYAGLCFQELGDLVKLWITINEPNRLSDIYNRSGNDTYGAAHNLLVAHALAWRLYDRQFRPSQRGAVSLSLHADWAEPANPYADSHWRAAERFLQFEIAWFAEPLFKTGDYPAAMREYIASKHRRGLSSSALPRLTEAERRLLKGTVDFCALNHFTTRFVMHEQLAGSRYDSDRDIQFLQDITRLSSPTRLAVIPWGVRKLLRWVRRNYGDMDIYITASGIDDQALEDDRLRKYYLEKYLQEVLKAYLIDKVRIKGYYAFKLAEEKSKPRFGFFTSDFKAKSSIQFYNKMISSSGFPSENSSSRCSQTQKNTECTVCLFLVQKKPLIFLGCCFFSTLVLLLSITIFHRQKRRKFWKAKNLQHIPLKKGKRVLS
Description: cell-based or functional assay.

B1: anti-beta klotho monoclonal antibody 3I13 (antibody, V domains shown)
VH: QVQLQQSGPELVKPGASVKISCKTSGYTFTEYTMHWVKQSHGKSLEWIGSFNPDSGGTSYNQKFKGKATLTVDKSSSTAYMELRSLTSEDSAVYYCARDDGYSTRYWYFDVWGAGTTVTVSS
VL: DIQMTQSPASLSASVGETVTITCGASENIYGALNWFQRKQGKSPQLLIYGATILADGMSSRFSGSGSGRQYSLKISSLHPDDVATYYCQNVLSTPYTFGGGTKLEIK
notes: Murine monoclonal antibody from a hybridoma (captured by anti-mouse Fc); also called 3I13 - Alexa488
In the case of B1, binding in assay [1] was put at a Kd of 1.9 nM. Further, in assay [2], the “HEK293 cynoKLB/R1c reporter assay EC50” value came to 0.438 nM.

B2: anti-beta klotho monoclonal antibody 2J21 (antibody, V domains shown)
VH: EVQLQQSGPELVKPGASVKISCKTSGYTFTEYIMHWVKQSHGKSLEWIGNIDPNTGGTSYNQKFKGKATLTVDKSSITAFMELRSLTSEDSAVYYCARDDGYSTRYWYFDVWGAGTTVTVSS
VL: DIQMTQSPPSLSASVGETVTITCGASENIYGALNWYQRKQGKSPQLLIYGATNLADGMSSRFSGSGSGRQYSLKISSLHPDDVATYYCQNVLSTPYTFGGGTKLEIK
notes: Murine monoclonal antibody from a hybridoma
On to B2, for which, in assay [1], the Kd was found to be 12.2 nM.

B3: anti-beta klotho monoclonal antibody 4A2 (antibody, V domains shown)
VH: EVQLQQSGPELVKPGTSVKISCKTSGYTFTEYTMYWVKQSHGKSLEWIGGFNPNYGGASYNQKFKDKATLTVDKSSSTAYMELRSLTSEDSAVYYCARDDGYSTRYWYFDVWGAGTTVTVSS
VL: DIQMTQSPASLSASVGETVTITCGASENIYGALNWYQRKQGKSPQLLIYGATNLADGMSSRFSGSGSGRQYSLKISSLHPDDVATYYCQNVLSTPYTFGGGTKLEIK
notes: as for B2
For B3, the Kd in assay [1] was 3.2 nM.
